Measured values taken from publication PMC2810249.
Square brackets hold non-standard residues; d marks the D form. pY = N[C@@H](Cc1ccc(OP(=O)(O)O)cc1)C(=O)O

Assays:
Test in all cases: NMR titration
[1] = target: Itk SH3 domain (wild type)
Itk SH3(E189Q) domain = target: Itk SH3(E189Q) domain
Itk SH3(Y180E) domain = target: Itk SH3(Y180E) domain
Itk SH3(E189K) domain = target: Itk SH3(E189K) domain
Itk SH2(I282A) domain = target: Itk SH2(I282A) domain

“Itk SH2(R332A) domain (domain or fragment)” showed a Kd [1] of 1800 µM.

With “Itk SH2 domain (wild type) (domain or fragment)” the Kd (Itk SH3(E189Q) domain) was 2050 µM and the Kd [1] was 670 µM.

Molecule “Itk SH2(K280A) domain (domain or fragment)” has a fold drop in affinity against SH3(Y180E)/wild type SH2 (Itk SH3(Y180E) domain) of 10 fold.

For “Itk SH2(K309E) domain (domain or fragment)”, the Kd [1] was 1850 µM and the Kd (Itk SH3(E189K) domain) was 1080 µM.

B1: phosphopeptide derived from Slp76 (Ac-ADpYEPP-NH2) (peptide)
peptide: Ac-AD[pY]EPP-NH2
SMILES: CC(=O)N[C@@H](C)C(=O)N[C@@H](CC(=O)O)C(=O)N[C@@H](Cc1ccc(OP(=O)(O)O)cc1)C(=O)N[C@@H](CCC(=O)O)C(=O)N1CCC[C@H]1C(=O)N1CCC[C@H]1C(N)=O
Molecule B1 has a Kd (Itk SH2(I282A) domain) of 1000 µM.
